# Test results reported in IntAct's records for PubMed 29892012.
# B1: Late cornified envelope protein 1B (Homo sapiens), Q5T7P3 (parent)
# chain: MSCQQNQQQCQPPPKCIPKCPPKCLTPRCPPKCPPKCPPVSSCCSVSSGGCCGSSSGGSCGSSSGGCCSSGGGGCCLSHHRRRRSHCHRPQSSGCCSQPSGGSSCCGGGSGQHSGGCC
# B2: Abl interactor 2 (Homo sapiens), Q9NYB9 (parent)
# chain: MAELQMLLEEEIPGGRRALFDSYTNLERVADYCENNYIQSADKQRALEETKAYTTQSLASVAYLINTLANNVLQMLDIQASQLRRMESSINHISQTVDIHKEKVARREIGILTTNKNTSRTHKIIAPANLERPVRYIRKPIDYTILDDIGHGVKWLLRFKVSTQNMKMGGLPRTTPPTQKPPSPPMSGKGTLGRHSPYRTLEPVRPPVVPNDYVPSPTRNMAPSQQSPVRTASVNQRNRTYSSSGSSGGSHPSSRSSSRENSGSGSVGVPIAVPTPSPPSVFPAPAGSAGTPPLPATSASAPAPLVPATVPSSTAPNAAAGGAPNLADGFTSPTPPVVSSTPPTGHPVQFYSMNRPASRHTPPTIGGSLPYRRPPSITSQTSLQNQMNGGPFYSQNPVSDTPPPPPPVEEPVFDESPPPPPPPEDYEEEEAAVVEYSDPYAEEDPPWAPRSYLEKVVAIYDYTKDKEDELSFQEGAIIYVIKKNDDGWYEGVMNGVTGLFPGNYVESIMHYSE
# partner: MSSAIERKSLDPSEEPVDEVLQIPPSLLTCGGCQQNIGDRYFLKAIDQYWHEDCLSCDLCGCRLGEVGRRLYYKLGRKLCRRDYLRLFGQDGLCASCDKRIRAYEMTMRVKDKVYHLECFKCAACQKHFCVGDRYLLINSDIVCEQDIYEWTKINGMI
# B3: E3 ubiquitin-protein ligase LNX (Homo sapiens), Q8TBB1 (parent)
# chain: MNQPESANDPEPLCAVCGQAHSLEENHFYSYPEEVDDDLICHICLQALLDPLDTPCGHTYCTLCLTNFLVEKDFCPMDRKPLVLQHCKKSSILVNKLLNKLLVTCPFREHCTQVLQRCDLEHHFQTSCKGASHYGLTKDRKRRSQDGCPDGCASLTATAPSPEVSAAATISLMTDEPGLDNPAYVSSAEDGQPAISPVDSGRSNRTRARPFERSTIRSRSFKKINRALSVLRRTKSGSAVANHADQGRENSENTTAPEVFPRLYHLIPDGEITSIKINRVDPSESLSIRLVGGSETPLVHIIIQHIYRDGVIARDGRLLPGDIILKVNGMDISNVPHNYAVRLLRQPCQVLWLTVMREQKFRSRNNGQAPDAYRPRDDSFHVILNKSSPEEQLGIKLVRKVDEPGVFIFNVLDGGVAYRHGQLEENDRVLAINGHDLRYGSPESAAHLIQASERRVHLVVSRQVRQRSPDIFQEAGWNSNGSWSPGPGERSNTPKPLHPTITCHEKVVNIQKDPGESLGMTVAGGASHREWDLPIYVISVEPGGVISRDGRIKTGDILLNVDGVELTEVSRSEAVALLKRTSSSIVLKALEVKEYEPQEDCSSPAALDSNHNMAPPSDWSPSWVMWLELPRCLYNCKDIVLRRNTAGSLGFCIVGGYEEYNGNKPFFIKSIVEGTPAYNDGRIRCGDILLAVNGRSTSGMIHACLARLLKELKGRITLTIVSWPGTFL
# partner: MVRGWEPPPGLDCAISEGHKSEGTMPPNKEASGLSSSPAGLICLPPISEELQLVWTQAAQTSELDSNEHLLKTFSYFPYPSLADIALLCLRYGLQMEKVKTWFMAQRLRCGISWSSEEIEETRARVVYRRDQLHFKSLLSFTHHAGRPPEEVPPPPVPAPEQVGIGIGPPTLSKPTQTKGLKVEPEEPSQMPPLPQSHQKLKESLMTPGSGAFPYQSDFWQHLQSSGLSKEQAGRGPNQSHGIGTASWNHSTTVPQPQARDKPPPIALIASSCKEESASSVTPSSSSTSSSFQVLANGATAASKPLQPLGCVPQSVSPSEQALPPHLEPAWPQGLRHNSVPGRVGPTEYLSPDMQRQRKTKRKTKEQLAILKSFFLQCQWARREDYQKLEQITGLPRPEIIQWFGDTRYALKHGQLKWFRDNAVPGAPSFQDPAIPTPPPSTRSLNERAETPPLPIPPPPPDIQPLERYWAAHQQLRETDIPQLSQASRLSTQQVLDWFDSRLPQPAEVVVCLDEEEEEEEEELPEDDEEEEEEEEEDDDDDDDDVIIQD
# B4: Abl interactor 2 (Homo sapiens), Q9NYB9 (parent)
# chain: B2 chain
# partner: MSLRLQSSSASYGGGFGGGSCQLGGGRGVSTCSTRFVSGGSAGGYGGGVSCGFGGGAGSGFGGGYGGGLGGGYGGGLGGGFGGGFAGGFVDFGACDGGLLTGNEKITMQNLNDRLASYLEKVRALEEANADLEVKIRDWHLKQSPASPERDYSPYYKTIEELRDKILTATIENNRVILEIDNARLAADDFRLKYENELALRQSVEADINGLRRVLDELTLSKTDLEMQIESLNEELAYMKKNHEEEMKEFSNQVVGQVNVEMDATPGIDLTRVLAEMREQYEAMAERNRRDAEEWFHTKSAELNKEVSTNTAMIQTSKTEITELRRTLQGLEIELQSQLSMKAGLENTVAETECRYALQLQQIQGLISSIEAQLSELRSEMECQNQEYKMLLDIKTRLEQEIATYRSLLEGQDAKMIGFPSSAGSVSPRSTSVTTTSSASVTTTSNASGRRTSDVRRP
# Variants of: B1
# Settings: with kr108_human KRTAP10-8, P60410
# Sequence of kr108_human KRTAP10-8, P60410 (P60410 whole entry): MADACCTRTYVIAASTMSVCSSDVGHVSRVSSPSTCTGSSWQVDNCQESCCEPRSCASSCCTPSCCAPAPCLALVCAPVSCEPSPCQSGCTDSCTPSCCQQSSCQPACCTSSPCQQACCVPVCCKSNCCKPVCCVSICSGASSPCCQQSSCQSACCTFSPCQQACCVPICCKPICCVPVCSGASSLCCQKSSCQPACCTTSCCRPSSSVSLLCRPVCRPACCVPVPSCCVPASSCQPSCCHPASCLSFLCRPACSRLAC
row,Variant,effect of a mutation on the interaction
1,C16Y,disrupting interaction strength

# Variants of: B1
# Settings: with kr103_human KRTAP10-3, P60369
# Sequence of kr103_human KRTAP10-3, P60369 (P60369 whole entry): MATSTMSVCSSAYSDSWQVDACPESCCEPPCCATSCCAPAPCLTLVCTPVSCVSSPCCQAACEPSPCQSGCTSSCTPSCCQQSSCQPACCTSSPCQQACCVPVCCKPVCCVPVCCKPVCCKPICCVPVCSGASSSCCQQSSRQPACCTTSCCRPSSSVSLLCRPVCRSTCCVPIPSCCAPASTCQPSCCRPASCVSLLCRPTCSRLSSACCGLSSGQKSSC
row,Variant,effect of a mutation on the interaction
1,C16Y,disrupting interaction strength

# Variants of: B1
# Settings: with kr101_human KRTAP10-1, P60331
# Sequence of kr101_human KRTAP10-1, P60331 (P60331 whole entry): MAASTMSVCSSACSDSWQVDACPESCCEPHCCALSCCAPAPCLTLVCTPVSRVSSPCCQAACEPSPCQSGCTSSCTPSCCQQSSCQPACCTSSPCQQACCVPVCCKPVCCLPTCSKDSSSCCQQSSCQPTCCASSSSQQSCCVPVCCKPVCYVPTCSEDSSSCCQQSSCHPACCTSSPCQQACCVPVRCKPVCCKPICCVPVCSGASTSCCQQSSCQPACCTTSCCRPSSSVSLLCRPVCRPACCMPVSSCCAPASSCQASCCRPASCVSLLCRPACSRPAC
row,Variant,effect of a mutation on the interaction
1,C16Y,with no effect

# Variants of: B1
# Settings: with hxa1_human HOXA1, P49639
# Sequence of hxa1_human HOXA1, P49639 (P49639 whole entry): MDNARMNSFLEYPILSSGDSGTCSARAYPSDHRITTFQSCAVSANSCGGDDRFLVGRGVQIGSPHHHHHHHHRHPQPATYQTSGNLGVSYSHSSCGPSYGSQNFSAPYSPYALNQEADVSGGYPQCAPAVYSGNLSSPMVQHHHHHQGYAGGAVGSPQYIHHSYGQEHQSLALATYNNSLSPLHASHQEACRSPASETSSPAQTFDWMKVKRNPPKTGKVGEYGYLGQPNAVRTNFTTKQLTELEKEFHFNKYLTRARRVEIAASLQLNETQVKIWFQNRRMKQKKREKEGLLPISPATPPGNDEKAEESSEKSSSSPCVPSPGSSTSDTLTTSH
row,Variant,effect of a mutation on the interaction
1,C16Y,with no effect

# Variants of: B1
# Settings: with kr105_human KRTAP10-5, P60370
# Sequence of kr105_human KRTAP10-5, P60370 (P60370 whole entry): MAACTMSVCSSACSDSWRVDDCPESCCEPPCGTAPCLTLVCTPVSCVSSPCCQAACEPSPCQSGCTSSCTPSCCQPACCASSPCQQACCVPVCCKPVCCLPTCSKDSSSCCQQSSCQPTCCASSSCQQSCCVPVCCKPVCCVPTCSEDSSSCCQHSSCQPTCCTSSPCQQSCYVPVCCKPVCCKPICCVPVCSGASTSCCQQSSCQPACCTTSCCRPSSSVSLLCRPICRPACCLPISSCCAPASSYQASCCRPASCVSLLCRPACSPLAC
row,Variant,effect of a mutation on the interaction
1,C16Y,disrupting interaction strength

# Variants of: B1
# Settings: with mdfi_human MDFI
row,Variant,effect of a mutation on the interaction
1,C16Y,disrupting interaction strength

# Variants of: B1
# Settings: with otx1_human OTX1, P32242
# Sequence of otx1_human OTX1, P32242 (P32242 whole entry): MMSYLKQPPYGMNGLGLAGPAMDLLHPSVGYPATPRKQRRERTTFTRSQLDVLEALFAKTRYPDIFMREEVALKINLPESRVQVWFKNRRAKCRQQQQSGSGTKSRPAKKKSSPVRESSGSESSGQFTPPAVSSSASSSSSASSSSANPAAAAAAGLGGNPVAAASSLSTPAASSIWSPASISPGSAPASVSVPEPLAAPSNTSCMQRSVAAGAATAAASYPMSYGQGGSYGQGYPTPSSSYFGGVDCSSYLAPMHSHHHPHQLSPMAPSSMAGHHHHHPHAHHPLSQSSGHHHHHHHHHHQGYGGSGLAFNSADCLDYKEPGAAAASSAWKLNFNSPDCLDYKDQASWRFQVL
row,Variant,effect of a mutation on the interaction
1,C16Y,with no effect

# Variants of: B1
# Settings: with kra32_human KRTAP3-2, Q9BYR7
# Sequence of kra32_human KRTAP3-2, Q9BYR7 (Q9BYR7 whole entry): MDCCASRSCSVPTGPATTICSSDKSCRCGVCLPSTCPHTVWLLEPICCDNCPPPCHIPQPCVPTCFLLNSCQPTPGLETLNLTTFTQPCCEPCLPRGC
row,Variant,effect of a mutation on the interaction
1,C16Y,with no effect

# Variants of: B1
# Settings: with nt2na_human NOTCH2NLA
row,Variant,effect of a mutation on the interaction
1,C16Y,with no effect

# Variants of: B2
# Settings: with rbtn2_human LMO2, P25791
row,Variant,effect of a mutation on the interaction
1,E202K,with no effect

# Variants of: B2
# Settings: with rbtn2_human LMO2, P25791
# Remark: another data set of the same source
row,Variant,effect of a mutation on the interaction
1,R373C,with no effect

# Variants of: B3
# Settings: with homez_human HOMEZ
row,Variant,effect of a mutation on the interaction
1,E295K,disrupting interaction strength

# Variants of: B4
# Settings: with KRT13, P13646
row,Variant,effect of a mutation on the interaction
1,E202K,with no effect
